Assay results: the supplement of paper PMC10567573

B1: EHMT1 (parent)
chain: SARQGELQKVLLMLVDGIDPNFKM
B2: TMEM175 (parent)
chain: QTSAFARQPRDELERVRVSCTIIF

Variants of: B1
Assay: protein stability index of a GFP-peptide fusion (GPS, HEK-293T) (PSI 1-6); higher = more stable
Details: c terminus: a fixed tail appended
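Further: lentivirally expressed fusions sorted by FACS into six bins by GFP to DsRed ratio, PSI derived from sequencing read proportions per bin multiplied by bin number.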

| Variant | protein stability index |
| --- | --- |
| SARQGELQKVLFMLVDGIDPNFKM | 3.06 |
| SARQGELQKVLLMLVDGIDPNMKM | 1.13 |
| SARQGELQKVLCMLVDGIDPNFKM | 2.31 |
| PARQGELQKVLLMLVDGIDPNFKM | 1.83 |
| SFRQGELQKVLLMLVDGIDPNFKM | 2.81 |
| SAFQGELQKVLLMLVDGIDPNFKM | 1.86 |
| SARQGELQKVLLMLVDGIDPNFKR | 1.8 |
| SGRQGELQKVLLMLVDGIDPNFKM | 1.02 |
| SARQEELQKVLLMLVDGIDPNFKM | 1.59 |
| SARQGELQKVLLMLVDGIDPNFKP | 2.6 |
| SARQGELGKVLLMLVDGIDPNFKM | 2.25 |
| SARQGELQKVLLMLVDGIDPDFKM | 1.41 |
| SARQGELQKVLLMLVDGIWPNFKM | 2.35 |
| SDRQGELQKVLLMLVDGIDPNFKM | 1.61 |
| SARQGELQKVELMLVDGIDPNFKM | 3.28 |
| SARQGELQKVLLMAVDGIDPNFKM | 2.39 |
| SARQGELQKVLLMLVDGIDPNFKK | 2.42 |

Variants of: B2
Assay: as above
Details: c terminus: a fixed tail appended

| Variant | protein stability index |
| --- | --- |
| ATSAFARQPRDELERVRVSCTIIF | 3.97 |
| DTSAFARQPRDELERVRVSCTIIF | 1.63 |
| ETSAFARQPRDELERVRVSCTIIF | 2.25 |
| FTSAFARQPRDELERVRVSCTIIF | 3.36 |
| GTSAFARQPRDELERVRVSCTIIF | 3.41 |
| HTSAFARQPRDELERVRVSCTIIF | 1.6 |
| KTSAFARQPRDELERVRVSCTIIF | 2.24 |
| LTSAFARQPRDELERVRVSCTIIF | 1.38 |
| MTSAFARQPRDELERVRVSCTIIF | 1.64 |
| NTSAFARQPRDELERVRVSCTIIF | 3.4 |
| PTSAFARQPRDELERVRVSCTIIF | 2.32 |
| STSAFARQPRDELERVRVSCTIIF | 2.17 |
| YTSAFARQPRDELERVRVSCTIIF | 3.11 |
| QASAFARQPRDELERVRVSCTIIF | 1.83 |
| QDSAFARQPRDELERVRVSCTIIF | 3.37 |
| QFSAFARQPRDELERVRVSCTIIF | 2.49 |
| QHSAFARQPRDELERVRVSCTIIF | 2.22 |
| QLSAFARQPRDELERVRVSCTIIF | 1.55 |
| QMSAFARQPRDELERVRVSCTIIF | 1.89 |
| QNSAFARQPRDELERVRVSCTIIF | 1.66 |
| QQSAFARQPRDELERVRVSCTIIF | 4.14 |
| QSSAFARQPRDELERVRVSCTIIF | 3.61 |
| QWSAFARQPRDELERVRVSCTIIF | 3.26 |
| QYSAFARQPRDELERVRVSCTIIF | 3.16 |
| QTAAFARQPRDELERVRVSCTIIF | 3.58 |
| QTEAFARQPRDELERVRVSCTIIF | 2.02 |

| Variant | protein stability index |
| --- | --- |
| QTFAFARQPRDELERVRVSCTIIF | 2.04 |
| QTGAFARQPRDELERVRVSCTIIF | 1.91 |
| QTHAFARQPRDELERVRVSCTIIF | 1.69 |
| QTIAFARQPRDELERVRVSCTIIF | 2.13 |
| QTKAFARQPRDELERVRVSCTIIF | 2.62 |
| QTLAFARQPRDELERVRVSCTIIF | 1.05 |
| QTMAFARQPRDELERVRVSCTIIF | 3.41 |
| QTNAFARQPRDELERVRVSCTIIF | 2.02 |
| QTQAFARQPRDELERVRVSCTIIF | 2.21 |
| QTRAFARQPRDELERVRVSCTIIF | 1.06 |
| QTWAFARQPRDELERVRVSCTIIF | 2.24 |
| QTYAFARQPRDELERVRVSCTIIF | 2.69 |
| QTSDFARQPRDELERVRVSCTIIF | 3.36 |
| QTSEFARQPRDELERVRVSCTIIF | 2.9 |
| QTSFFARQPRDELERVRVSCTIIF | 1.88 |
| QTSGFARQPRDELERVRVSCTIIF | 2.95 |
| QTSHFARQPRDELERVRVSCTIIF | 1.46 |
| QTSIFARQPRDELERVRVSCTIIF | 1.96 |
| QTSKFARQPRDELERVRVSCTIIF | 1.26 |
| QTSLFARQPRDELERVRVSCTIIF | 3.63 |
| QTSMFARQPRDELERVRVSCTIIF | 3.56 |
| QTSNFARQPRDELERVRVSCTIIF | 1.5 |
| QTSPFARQPRDELERVRVSCTIIF | 3.2 |
| QTSRFARQPRDELERVRVSCTIIF | 2.89 |
| QTSSFARQPRDELERVRVSCTIIF | 3.97 |
| QTSTFARQPRDELERVRVSCTIIF | 2.06 |

| Variant | protein stability index |
| --- | --- |
| QTSVFARQPRDELERVRVSCTIIF | 1.7 |
| QTSYFARQPRDELERVRVSCTIIF | 1.46 |
| QTSAAARQPRDELERVRVSCTIIF | 1.75 |
| QTSACARQPRDELERVRVSCTIIF | 4.13 |
| QTSADARQPRDELERVRVSCTIIF | 1.69 |
| QTSAEARQPRDELERVRVSCTIIF | 1.91 |
| QTSAHARQPRDELERVRVSCTIIF | 1.48 |
| QTSAIARQPRDELERVRVSCTIIF | 1.72 |
| QTSAKARQPRDELERVRVSCTIIF | 1.34 |
| QTSALARQPRDELERVRVSCTIIF | 1.9 |
| QTSAMARQPRDELERVRVSCTIIF | 2.25 |
| QTSANARQPRDELERVRVSCTIIF | 1.65 |
| QTSAPARQPRDELERVRVSCTIIF | 2.48 |
| QTSAQARQPRDELERVRVSCTIIF | 2.27 |
| QTSARARQPRDELERVRVSCTIIF | 1.38 |
| QTSASARQPRDELERVRVSCTIIF | 1.94 |
| QTSATARQPRDELERVRVSCTIIF | 2.01 |
| QTSAVARQPRDELERVRVSCTIIF | 2.15 |
| QTSAYARQPRDELERVRVSCTIIF | 2.54 |
| QTSAFCRQPRDELERVRVSCTIIF | 3.04 |
| QTSAFDRQPRDELERVRVSCTIIF | 2.35 |
| QTSAFERQPRDELERVRVSCTIIF | 3.06 |
| QTSAFFRQPRDELERVRVSCTIIF | 1.36 |
| QTSAFHRQPRDELERVRVSCTIIF | 2.09 |
| QTSAFKRQPRDELERVRVSCTIIF | 2.11 |
